Numbering of substitutions follows the chain as printed. In names and notes the source's numbering stands.
B1: P88L: PYR1 mutant (protein, UniProt O49686 1-191, looked up, variant P88L)
Abscisic acid receptor PYR1: MPSELTPEERSELKNSIAEFHTYQLDPGSCSSLHAQRIHAPPELVWSIVRRFDKPQTYKHFIKSCSVEQNFEMRVGCTRDVIVISGLLANTSTERLDILDDERRVTGFSIIGGEHRLTNYKSVTTVHRFEKENRIWTVVLESYVVDMPEGNSEDDTRMFADTVVKLNLQKLATVAEAMARNSGDGSGSQVT
B2: H115M: PYR1 mutant (protein, UniProt O49686 1-191, looked up, variant H115M)
Abscisic acid receptor PYR1: B1 Abscisic acid receptor PYR1 with L88P, H115M
B3: P88D: PYR1 mutant (protein, UniProt O49686 1-191, looked up, variant P88D)
Abscisic acid receptor PYR1: B1 Abscisic acid receptor PYR1 with L88D
B4: P88E: PYR1 mutant (protein, UniProt O49686 1-191, looked up, variant P88E)
Abscisic acid receptor PYR1: B1 Abscisic acid receptor PYR1 with L88E
B5: A89H: PYR1 mutant (protein, UniProt O49686 1-191, looked up, variant A89H)
Abscisic acid receptor PYR1: B1 Abscisic acid receptor PYR1 with L88P, A89H
B6: H115P: PYR1 mutant (protein, UniProt O49686 1-191, looked up, variant H115P)
Abscisic acid receptor PYR1: B1 Abscisic acid receptor PYR1 with L88P, H115P
B7: A89S: PYR1 mutant (protein, UniProt O49686 1-191, looked up, variant A89S)
Abscisic acid receptor PYR1: B1 Abscisic acid receptor PYR1 with L88P, A89S
B8: P88F: PYR1 mutant (protein, UniProt O49686 1-191, looked up, variant P88F)
Abscisic acid receptor PYR1: B1 Abscisic acid receptor PYR1 with L88F
B9: A89I: PYR1 mutant (protein, UniProt O49686 1-191, looked up, variant A89I)
Abscisic acid receptor PYR1: B1 Abscisic acid receptor PYR1 with L88P, A89I
B10: H115A: PYR1 mutant (protein, UniProt O49686 1-191, looked up, variant H115A)
Abscisic acid receptor PYR1: B1 Abscisic acid receptor PYR1 with L88P, H115A
B11: A89P: PYR1 mutant (protein, UniProt O49686 1-191, looked up, variant A89P)
Abscisic acid receptor PYR1: B1 Abscisic acid receptor PYR1 with L88P, A89P
B12: A89N: PYR1 mutant (protein, UniProt O49686 1-191, looked up, variant A89N)
Abscisic acid receptor PYR1: B1 Abscisic acid receptor PYR1 with L88P, A89N
B13: A89V: PYR1 mutant (protein, UniProt O49686 1-191, looked up, variant A89V)
Abscisic acid receptor PYR1: B1 Abscisic acid receptor PYR1 with L88P, A89V
B14: A89D: PYR1 mutant (protein, UniProt O49686 1-191, looked up, variant A89D)
Abscisic acid receptor PYR1: B1 Abscisic acid receptor PYR1 with L88P, A89D
B15: P88R: PYR1 mutant (protein, UniProt O49686 1-191, looked up, variant P88R)
Abscisic acid receptor PYR1: B1 Abscisic acid receptor PYR1 with L88R
B16: H115R: PYR1 mutant (protein, UniProt O49686 1-191, looked up, variant H115R)
Abscisic acid receptor PYR1: B1 Abscisic acid receptor PYR1 with L88P, H115R
B17: P88Q: PYR1 mutant (protein, UniProt O49686 1-191, looked up, variant P88Q)
Abscisic acid receptor PYR1: B1 Abscisic acid receptor PYR1 with L88Q
B18: P88I: PYR1 mutant (protein, UniProt O49686 1-191, looked up, variant P88I)
Abscisic acid receptor PYR1: B1 Abscisic acid receptor PYR1 with L88I
B19: A89C: PYR1 mutant (protein, UniProt O49686 1-191, looked up, variant A89C)
Abscisic acid receptor PYR1: B1 Abscisic acid receptor PYR1 with L88P, A89C
B20: A89M: PYR1 mutant (protein, UniProt O49686 1-191, looked up, variant A89M)
Abscisic acid receptor PYR1: B1 Abscisic acid receptor PYR1 with L88P, A89M
B21: P88H: PYR1 mutant (protein, UniProt O49686 1-191, looked up, variant P88H)
Abscisic acid receptor PYR1: B1 Abscisic acid receptor PYR1 with L88H
B22: A89F: PYR1 mutant (protein, UniProt O49686 1-191, looked up, variant A89F)
Abscisic acid receptor PYR1: B1 Abscisic acid receptor PYR1 with L88P, A89F
B23: P88W: PYR1 mutant (protein, UniProt O49686 1-191, looked up, variant P88W)
Abscisic acid receptor PYR1: B1 Abscisic acid receptor PYR1 with L88W
B24: P88S: PYR1 mutant (protein, UniProt O49686 1-191, looked up, variant P88S)
Abscisic acid receptor PYR1: B1 Abscisic acid receptor PYR1 with L88S
B25: H115L: PYR1 mutant (protein, UniProt O49686 1-191, looked up, variant H115L)
Abscisic acid receptor PYR1: B1 Abscisic acid receptor PYR1 with L88P, H115L
B26: P88K: PYR1 mutant (protein, UniProt O49686 1-191, looked up, variant P88K)
Abscisic acid receptor PYR1: B1 Abscisic acid receptor PYR1 with L88K
B27: A89R: PYR1 mutant (protein, UniProt O49686 1-191, looked up, variant A89R)
Abscisic acid receptor PYR1: B1 Abscisic acid receptor PYR1 with L88P, A89R
B28: P88Y: PYR1 mutant (protein, UniProt O49686 1-191, looked up, variant P88Y)
Abscisic acid receptor PYR1: B1 Abscisic acid receptor PYR1 with L88Y
B29: A89Y: PYR1 mutant (protein, UniProt O49686 1-191, looked up, variant A89Y)
Abscisic acid receptor PYR1: B1 Abscisic acid receptor PYR1 with L88P, A89Y
B30: P88V: PYR1 mutant (protein, UniProt O49686 1-191, looked up, variant P88V)
Abscisic acid receptor PYR1: B1 Abscisic acid receptor PYR1 with L88V
B31: P88G: PYR1 mutant (protein, UniProt O49686 1-191, looked up, variant P88G)
Abscisic acid receptor PYR1: B1 Abscisic acid receptor PYR1 with L88G
B32: P88T: PYR1 mutant (protein, UniProt O49686 1-191, looked up, variant P88T)
Abscisic acid receptor PYR1: B1 Abscisic acid receptor PYR1 with L88T
B33: A89L: PYR1 mutant (protein, UniProt O49686 1-191, looked up, variant A89L)
Abscisic acid receptor PYR1: B1 Abscisic acid receptor PYR1 with L88P, A89L
B34: P88C: PYR1 mutant (protein, UniProt O49686 1-191, looked up, variant P88C)
Abscisic acid receptor PYR1: B1 Abscisic acid receptor PYR1 with L88C
B35: A89Q: PYR1 mutant (protein, UniProt O49686 1-191, looked up, variant A89Q)
Abscisic acid receptor PYR1: B1 Abscisic acid receptor PYR1 with L88P, A89Q
B36: A89E: PYR1 mutant (protein, UniProt O49686 1-191, looked up, variant A89E)
Abscisic acid receptor PYR1: B1 Abscisic acid receptor PYR1 with L88P, A89E
B37: P88N: PYR1 mutant (protein, UniProt O49686 1-191, looked up, variant P88N)
Abscisic acid receptor PYR1: B1 Abscisic acid receptor PYR1 with L88N
B38: A89T: PYR1 mutant (protein, UniProt O49686 1-191, looked up, variant A89T)
Abscisic acid receptor PYR1: B1 Abscisic acid receptor PYR1 with L88P, A89T
B39: H115Q: PYR1 mutant (protein, UniProt O49686 1-191, looked up, variant H115Q)
Abscisic acid receptor PYR1: B1 Abscisic acid receptor PYR1 with L88P, H115Q
B40: P88M: PYR1 mutant (protein, UniProt O49686 1-191, looked up, variant P88M)
Abscisic acid receptor PYR1: B1 Abscisic acid receptor PYR1 with L88M
B41: A89K: PYR1 mutant (protein, UniProt O49686 1-191, looked up, variant A89K)
Abscisic acid receptor PYR1: B1 Abscisic acid receptor PYR1 with L88P, A89K

Tested on: HAB1
Assay: Yeast two hybrid of pBD-PYR1 site saturation mutants with pACT-HAB1 on 10 μM ABA, β-galactosidase staining
Type: cell-based, Arabidopsis
Design: key: x: Mutations in PYR1 that disrupt ABA-induced binding to PYR1 to HAB1
Conditions: S. cerevisiae Y190, 10 μM ABA; dead = lack of visible staining in comparison to wild type control
Excerpt: To systematically identify mutations in PYR1 that disrupt its binding to HAB1, we utilized a collection of saturating mutations that contain all possible single amino acid substitutions in 24 conserved interface residues involved in binding HAB1, which was previously constructed for the purpose of engineering constitutively active ABA receptor variants (Mosquna et al., 2011). The interface residues previously mutagenized in this collection are the following: H60, F61, I62, K63, I84, S85, G86, L87, P88, A89, H115, R116, L117, P148, G150, N151, D154, D155, T156, M158, F159, T162, L166, K170. This set was made by mutagenizing a pBD-PYR1 template that encodes a GAL4-DNA binding domain fusion to PYR1, which can be used to assess receptor-HAB1 binding in S. cerevisiae strains co-transformed with pACT-HAB1, which expresses a GAL4 activation domain fusion to HAB1. Mutant pBD-PYR1 clones from the collection are maintained in S. cerevisiae strain Y190 co-transformed with pACT-HAB1. The test strains were spotted onto agar plates containing synthetic dextrose dropout media lacking leucine and tryptophan [SD (-Leu, -Trp)] medium supplemented with 10 μM ABA. After incubating the test plates at 30° C. for two days, colonies were chloroform lysed and stained to reveal […] expression levels and “dead” mutants were defined by lack of visible staining in comparison to a wild type control. This effort defined 237 mutations that disrupt ABA-induced binding of PYR1 to HAB1 (Table 1). Premade yeast drop out supplements (Clontech) were utilized in this and other examples for media preparation, amino acids and other standard chemicals were purchased from Sigma-Aldrich (USA). The naturally occurring (+)-ABA isomer was used in all experiments and purchased from Biosynth Ag (Switzerland).

Molecule	Mutations in PYR1 that disrupt ABA-induced binding to PYR1 to HAB1
B1	x
B2	x
B3	x
B4	x
B5	x
B6	x
B7	x
B8	x
B9	x
B10	x
B11	x
B12	x
B13	x
B14	x
B15	x
B16	x
B17	x
B18	x
B19	x
B20	x
B21	x

Molecule	Mutations in PYR1 that disrupt ABA-induced binding to PYR1 to HAB1
B22	x
B23	x
B24	x
B25	x
B26	x
B27	x
B28	x
B29	x
B30	x
B31	x
B32	x
B33	x
B34	x
B35	x
B36	x
B37	x
B38	x
B39	x
B40	x
B41	x
